The values below come from PMC10924945.

Test in all cases: EMSA
(Mobility shift assays separate free from complexed probe on a gel.)

The target of series [1] is T1, BfmR R210A R210A (Pseudomonas aeruginosa PAO1) (UniProt Q9HWS7).
T1 sequence: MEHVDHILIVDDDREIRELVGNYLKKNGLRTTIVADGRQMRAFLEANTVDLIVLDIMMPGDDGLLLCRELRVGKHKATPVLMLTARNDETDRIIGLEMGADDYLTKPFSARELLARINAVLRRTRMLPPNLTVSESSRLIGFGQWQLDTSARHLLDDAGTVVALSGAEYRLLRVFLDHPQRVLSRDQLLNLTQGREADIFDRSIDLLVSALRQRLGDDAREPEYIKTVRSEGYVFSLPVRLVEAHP

Series [2] deals with T2, BfmR D205A D205A (Pseudomonas aeruginosa PAO1) (UniProt Q9HWS7).
T2 sequence: T1 sequence with D205A, A210R

Series [3] deals with T3, BfmR S209A S209A (Pseudomonas aeruginosa PAO1) (UniProt Q9HWS7).
T3 sequence: T1 sequence with S209A, A210R

In series [4] the target is T4, BfmR R212A R212A (Pseudomonas aeruginosa PAO1) (UniProt Q9HWS7).
T4 sequence: T1 sequence with A210R, R212A

The target in series [5] is T5, BfmR T227A T227A (Pseudomonas aeruginosa PAO1) (UniProt Q9HWS7).
T5 sequence: T1 sequence with A210R, T227A

The target of series [6] is T6, BfmR (Pseudomonas aeruginosa PAO1) (UniProt Q9HWS7).
T6 sequence: T1 sequence with A210R

Series [7] has as its target T7, BfmR R185A R185A (Pseudomonas aeruginosa PAO1) (UniProt Q9HWS7).
T7 sequence: T1 sequence with R185A, A210R

The target of series [8] is T8, BfmR R202A R202A (Pseudomonas aeruginosa PAO1) (UniProt Q9HWS7).
T8 sequence: T1 sequence with R202A, A210R

Numbering of substitutions follows the chain as printed.

Consider “CATCGGATTCCTGCGAATACTACTGATAACGATAATCTCTATCATTTACTCCATTTTTACATTTACATACACTTGCCCCGCCGCGAATTCCTACGCCGGTTTCCCACATAAACAAGAAACGC (double strand) [PfpvB]”, for which the binding result in series [1] is recorded as “binds more weakly”; in series [2] it was “binds more weakly”; in series [3] it was “binds more weakly”; in series [4], “binds more weakly”; in series [5], “binds more weakly”; in series [6], “binds”. Further, the binding entry in series [7] and in series [8] was “binds more weakly” throughout.
